From patent publication US20250215491, “SEQUENCING WITH SINGLE-STRANDED BINDING PROTEINS” (ILLUMINA, INC., published 2025) come the findings set out here.

Series [1] concerns the target T1, Tth SSB F255P (Rev 101 F225P) (Thermus thermophilus HB8, UniProt Q5SLP9 SEQ:21-283).
T1 chain: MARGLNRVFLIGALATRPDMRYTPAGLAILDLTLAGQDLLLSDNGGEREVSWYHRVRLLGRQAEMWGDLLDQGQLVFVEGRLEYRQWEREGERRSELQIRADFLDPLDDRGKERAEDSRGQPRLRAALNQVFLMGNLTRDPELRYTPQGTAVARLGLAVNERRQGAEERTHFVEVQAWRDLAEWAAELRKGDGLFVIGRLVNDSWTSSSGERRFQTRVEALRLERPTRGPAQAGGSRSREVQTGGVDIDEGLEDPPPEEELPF
Put plainly: EMSA; Kd value only in FIG. 12; 50 mM Tris pH 7.5, 50 mM NaCl, 0.1 mM DTT, 60 C 10 min; 0.25 nM oligo; protein 0.1-4 uM. The note with it: chain copies: 2 (inferred); label: 5'-FAM. The method, then: (§1) An electrophoretic mobility shift assay was used to determine the binding affinity (Kd) for the Tth F255P SSB and Tth SSB. An oligonucleotide of 35 bases labelled at the 5′ end with fluorescein (FAM) dye was used as the substrate. The sequence of the oligonucleotide is 5′ FAM GTGTAGATCTCGGTGGTCGCCGTATCATTAAAAAA (SEQ ID NO: 14). A titration of Tth F255P SSB or Tth SSB was used ranging from 0.1 to 4 μM. The reaction buffer was 50 mM Tris pH 7.5, 50 mM NaCl, and 0.1 mM DTT with each reaction utilizing […] of labelled oligonucleotide. The reactions were incubated at 60° C. for 10 minutes. The reactions were resolved on 10% acrylamide native TBE gel and imaged with Typhoon Scanner. The fraction of bound versus unbound for each concentration tested was determined and fitted for Kd analysis.

Series [2] addresses T2, Tth SSB (Rev 101) (Thermus thermophilus HB8, UniProt Q5SLP9 SEQ:21-283).
T2 sequence: T1 chain with P255F
The description is as above. The conditions noted are these: chain copies: 2 (inferred); label: 5'-FAM. The method, then:
as §1

Numbering of substitutions follows the chain as printed.

B1: 5'-FAM 35-mer oligonucleotide (ssDNA)
DNA: GTGTAGATCTCGGTGGTCGCCGTATCATTAAAAAA
Consider B1, for which the binding result in series [1] and in series [2] was “binds” each time.
